Experimental data: patent publication US20180327506A1 (AbbVie / Abbott, published 2018)

T1: full-length mature human EMR2 (residues Q24-N823) with N-terminal aspartic acid/lysine epitope tag, … (human, UniProt Q9UHX3 24-823)
T1 sequence: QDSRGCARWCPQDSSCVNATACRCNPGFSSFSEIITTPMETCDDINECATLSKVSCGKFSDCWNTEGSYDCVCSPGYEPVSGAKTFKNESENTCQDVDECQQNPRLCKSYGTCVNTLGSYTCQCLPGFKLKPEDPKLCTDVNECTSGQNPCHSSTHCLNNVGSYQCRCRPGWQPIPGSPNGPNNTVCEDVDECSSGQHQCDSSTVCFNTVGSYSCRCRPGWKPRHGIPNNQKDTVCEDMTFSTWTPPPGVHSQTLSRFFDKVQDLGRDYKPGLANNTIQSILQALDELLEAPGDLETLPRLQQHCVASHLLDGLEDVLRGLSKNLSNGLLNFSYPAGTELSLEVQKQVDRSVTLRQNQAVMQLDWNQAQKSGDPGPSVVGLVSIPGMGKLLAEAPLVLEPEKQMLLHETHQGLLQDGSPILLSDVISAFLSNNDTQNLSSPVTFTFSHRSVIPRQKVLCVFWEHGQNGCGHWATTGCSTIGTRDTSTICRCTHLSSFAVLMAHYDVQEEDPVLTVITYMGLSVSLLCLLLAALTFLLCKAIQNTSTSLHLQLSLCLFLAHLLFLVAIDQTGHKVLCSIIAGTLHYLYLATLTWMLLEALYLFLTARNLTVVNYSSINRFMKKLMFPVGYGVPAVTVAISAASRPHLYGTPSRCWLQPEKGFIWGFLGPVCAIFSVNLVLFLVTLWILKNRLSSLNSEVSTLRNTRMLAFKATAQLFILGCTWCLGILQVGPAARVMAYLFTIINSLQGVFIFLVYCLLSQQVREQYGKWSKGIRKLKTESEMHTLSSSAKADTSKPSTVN

T2: full-length mature cynomolgus EMR2 (residues Q24-N816) with N-terminal aspartic acid/lysine epitope tag, … (cynomolgus monkey (Macaca fascicularis), UniProt A0A2K5WL23 21-816)
T2 sequence: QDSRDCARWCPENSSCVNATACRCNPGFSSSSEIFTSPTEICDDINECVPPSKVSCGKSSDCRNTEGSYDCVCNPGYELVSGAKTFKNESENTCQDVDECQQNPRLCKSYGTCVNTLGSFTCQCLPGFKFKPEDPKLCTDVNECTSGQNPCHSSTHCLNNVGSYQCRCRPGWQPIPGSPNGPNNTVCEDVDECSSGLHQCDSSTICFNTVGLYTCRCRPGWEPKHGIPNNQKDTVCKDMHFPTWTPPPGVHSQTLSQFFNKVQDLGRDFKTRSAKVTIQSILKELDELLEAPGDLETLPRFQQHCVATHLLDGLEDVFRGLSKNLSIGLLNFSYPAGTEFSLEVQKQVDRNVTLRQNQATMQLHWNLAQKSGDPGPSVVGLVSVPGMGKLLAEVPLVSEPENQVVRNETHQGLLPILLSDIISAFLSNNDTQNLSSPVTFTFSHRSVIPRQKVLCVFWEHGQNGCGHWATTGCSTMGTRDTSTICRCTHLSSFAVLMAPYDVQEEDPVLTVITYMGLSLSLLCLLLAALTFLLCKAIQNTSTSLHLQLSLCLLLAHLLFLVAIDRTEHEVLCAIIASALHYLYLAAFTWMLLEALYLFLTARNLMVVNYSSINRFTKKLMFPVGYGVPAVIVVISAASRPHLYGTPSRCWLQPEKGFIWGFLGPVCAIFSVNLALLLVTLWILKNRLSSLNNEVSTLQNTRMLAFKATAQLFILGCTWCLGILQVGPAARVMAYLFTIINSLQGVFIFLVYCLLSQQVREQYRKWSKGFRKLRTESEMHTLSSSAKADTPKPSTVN

T3: full-length mature human CD97 (residues Q21-I845) with N-terminal aspartic acid/lysine epitope tag, … (human, UniProt P48960 21-835)
T3 sequence (looked up): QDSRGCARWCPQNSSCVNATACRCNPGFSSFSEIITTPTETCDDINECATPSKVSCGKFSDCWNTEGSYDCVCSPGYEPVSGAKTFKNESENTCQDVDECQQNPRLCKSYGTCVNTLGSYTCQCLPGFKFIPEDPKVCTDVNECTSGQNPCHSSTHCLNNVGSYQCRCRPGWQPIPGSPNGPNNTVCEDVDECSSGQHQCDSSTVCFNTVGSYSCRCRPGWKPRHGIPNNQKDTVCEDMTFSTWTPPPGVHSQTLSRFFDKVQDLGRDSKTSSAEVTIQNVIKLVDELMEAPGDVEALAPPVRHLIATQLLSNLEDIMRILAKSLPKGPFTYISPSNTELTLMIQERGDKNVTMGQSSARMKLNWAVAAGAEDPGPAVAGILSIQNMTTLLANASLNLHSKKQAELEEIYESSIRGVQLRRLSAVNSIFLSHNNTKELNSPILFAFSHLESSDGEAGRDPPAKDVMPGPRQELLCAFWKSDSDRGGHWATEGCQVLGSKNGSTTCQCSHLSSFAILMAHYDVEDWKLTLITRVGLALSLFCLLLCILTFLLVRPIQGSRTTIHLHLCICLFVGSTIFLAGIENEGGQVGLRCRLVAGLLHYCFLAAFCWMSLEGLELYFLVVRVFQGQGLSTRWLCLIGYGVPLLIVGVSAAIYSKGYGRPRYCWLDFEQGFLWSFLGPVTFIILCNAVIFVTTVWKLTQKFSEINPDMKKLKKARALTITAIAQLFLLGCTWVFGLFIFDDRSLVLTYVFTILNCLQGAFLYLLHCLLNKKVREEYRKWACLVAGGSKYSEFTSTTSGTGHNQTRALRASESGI

B1: SC93.256 (antibody, IgG2a, V domains shown)
VH: EVKLEESGGGLVQPGGSMKLSCAASGFTFSDAWMDWVRQSPEKGLEWVAEIRSKVNNHETYYAESVKGRFTISRDDSKSSVYLQMNSLRAEDTGIYYCIRNDYFDYWGQGTTLTVSS
VL: DIQMTQTTSSLSASLGDRVTISCSASQGIRNYLNWYQQKPDGTVKLLIYYTSRLHSGVPSRFSGSGSGTDYSLTISNLEPEDIATYYCQQYGKLPYTFGGGTKLEIK
notes: murine, IgG2a
B2: SC93.255 (antibody, V domains shown)
VH: QVQLQQSDAELVKPGSSVKISCKVSGFTFTDHTIHWMKQRPEQGLEWIGYIYPRDGNTKYNEKFTGKATLTADRSSSTAYMQLNSLTSEDSAVYFCASSNWAQWYFDIWGTGTTVTVSS
VL: DIQMTQSSSYLSVSLGGRVTITCKASDHINNWLAWYQQKPGNAPRLLIFGATSLETGVPSRFSGSGSGKDYTLSITSLQSEDVGTYYCQQYWSIPYTFGGGTKLEIK
notes: Murine hybridoma antibody with a kappa light chain
B3: SC93.253 (antibody, V domains shown)
VH: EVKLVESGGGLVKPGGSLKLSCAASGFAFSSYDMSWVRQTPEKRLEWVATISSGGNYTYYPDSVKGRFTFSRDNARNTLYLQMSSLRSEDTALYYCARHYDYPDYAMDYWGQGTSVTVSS
VL: DIVMTQSQKFMSTSVGDRIIITCKASQNVRTTVDWYQQKPGQSPKVLISLASNRHTGVPDRFTGSGSGTDFTLTISNVQSEDLADYFCLQHRNYPLTFGGGTKLEIK
notes: as for B2

Legend:
[1] = molecular target: T1, full-length mature human EMR2 (residues …); experiment: cell-based or functional assay
[2] = molecular target: T2, full-length mature cynomolgus EMR2 …; experiment: cell-based or functional assay
[3] = molecular target: T3, full-length mature human CD97 (residues …); experiment: cell-based or functional assay
[4] = molecular target: T1, full-length mature human EMR2 (residues …); experiment: flow cytometry on transduced HEK293T; 293 naive MFI 109
Method: (§1) The exemplary antibodies were also tested using flow cytometry to determine their ability to associate with hEMR2, cEMR2 and CD97 expressed on the surface of cells.

[5] = molecular target: T2, full-length mature cynomolgus EMR2 …; experiment: as above
Method: as §1

[6] = molecular target: T3, full-length mature human CD97 (residues …); experiment: as above
Method: as §1

[7] = molecular target: T1, full-length mature human EMR2 (residues …); experiment: flow cytometry on transduced HEK293T; 293 naive MFI 269
Method: as §1

[8] = molecular target: T2, full-length mature cynomolgus EMR2 …; experiment: as above
Method: as §1

[9] = molecular target: T3, full-length mature human CD97 (residues …); experiment: as above
Method: as §1

[10] = molecular target: T1, full-length mature human EMR2 (residues …); experiment: flow cytometry on transduced HEK293T; 293 naive MFI 99.5
Method: as §1

[11] = molecular target: T2, full-length mature cynomolgus EMR2 …; experiment: as above
Method: as §1

[12] = molecular target: T3, full-length mature human CD97 (residues …); experiment: as above
Method: as §1

Row | Binder | % live, FAB-saporin killing assay [1] [%] | % live, FAB-saporin killing assay [2] [%] | % live, FAB-saporin killing assay [3] [%] | FC MFI [4] | FC MFI [5] | FC MFI [6] | FC MFI [7] | FC MFI [8] | FC MFI [9] | FC MFI [10] | FC MFI [11] | FC MFI [12]
1 | B1 | 12.5 | 12.3 | 92.4 | 42600 | 37600 | 88.3 |  |  |  |  |  | 
2 | B2 | 12.1 | 9.63 | 9.09 |  |  |  | 36400 | 43800 | 43300 |  |  | 
3 | B3 | 13.4 | 11.1 | 92.2 |  |  |  |  |  |  | 38300 | 48700 | 328
